T1: Rat CTGF (Rattus norvegicus, UniProt Q9R1E9)
T1 construct: purchased R&D Systems
T1 sequence (Q9R1E9 25-347): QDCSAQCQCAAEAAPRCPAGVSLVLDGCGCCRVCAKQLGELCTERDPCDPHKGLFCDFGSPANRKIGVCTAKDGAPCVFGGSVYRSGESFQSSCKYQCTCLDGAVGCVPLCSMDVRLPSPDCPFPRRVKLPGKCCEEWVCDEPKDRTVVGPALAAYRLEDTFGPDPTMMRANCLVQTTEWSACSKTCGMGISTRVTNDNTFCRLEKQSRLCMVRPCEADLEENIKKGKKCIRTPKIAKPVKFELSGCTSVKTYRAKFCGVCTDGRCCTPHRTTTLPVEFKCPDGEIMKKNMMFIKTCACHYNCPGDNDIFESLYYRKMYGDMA

T2: Murine CTGF (Mus musculus, UniProt P29268)
T2 construct: purchased Abbexa
T2 sequence (P29268 26-348): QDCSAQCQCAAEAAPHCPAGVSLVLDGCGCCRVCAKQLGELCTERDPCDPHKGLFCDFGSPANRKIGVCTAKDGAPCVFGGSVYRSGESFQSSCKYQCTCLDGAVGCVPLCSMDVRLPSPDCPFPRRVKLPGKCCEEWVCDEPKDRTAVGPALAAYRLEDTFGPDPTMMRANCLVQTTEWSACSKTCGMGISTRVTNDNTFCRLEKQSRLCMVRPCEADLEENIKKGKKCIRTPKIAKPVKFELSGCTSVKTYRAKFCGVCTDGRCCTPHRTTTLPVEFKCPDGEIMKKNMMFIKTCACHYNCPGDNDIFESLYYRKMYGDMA


What was measured:
[1] = target: T1, Rat CTGF; assay: SPR binding kinetics and affinity, rat CTGF; set-up: key to Rat CTGF kon / Rat CTGF koff / Rat CTGF KD: B binding without determination of kinetics constants; conditions: 25° C., 1:1 binding model
Procedure: (§1) Surface plasmon resonance (SPR) was used to measure binding kinetics and affinity of the representative lipocalin muteins disclosed herein.
(§2) The binding of exemplary lipocalin muteins to human (Creative Biomart), cynomolgus, rat (R&D Systems) and mouse CTGF (Abbexa) was determined by SPR using a Biacore instrument (Cytiva, formerly GE Healthcare). Some targets were fused to a human IgG1 Fc tag, and captured via the anti-human IgG antibody kit, others were directly immobilized.
(§3) For some measurements, human CTGF with a human IgG1 Fc Tag or rat or murine CTGF without a tag were directly immobilized to a CM5 Chip. The carboxyl groups on the chip were activated using 1-ethyl-3-(3-dimethylaminopropyl)-carbodiimide (EDC) and N-hydroxysuccinimide (NHS). Subsequently, the targets at a concentration of 3-5 μg/mL in 10 mM sodium acetate (pH) 4.5 were applied at a flow rate of 10 μL/min until an immobilization level of 300-1100 resonance units was achieved. Residual non-reacted NHS-esters were blocked by passing a solution of 1 M ethanolamine across the surface. The reference channel was activated/deactivated. For the capture setting, targets with an IgG Fc Tag at 0.25-2.5 μg/mL in HBS-EP+ buffer were captured by the anti-human IgG-Fc antibody at the chip surface for 180 s at a flow rate of 10 μL/min.
(§4) The binding assay was carried out with a contact time of 180 s, a dissociation time of 900-3600 s and a flow rate of 30 μL/min. All measurements were performed at 25° C. […] For the directly immobilized targets, the same regeneration conditions were used. Prior to the protein measurements, three startup cycles were performed for conditioning purposes. Data were evaluated with Biacore Evaluation software. Double referencing was used and the 1:1 binding model was used to fit the raw data.
(§5) The values determined for kon, koff and the resulting equilibrium dissociation constant (KD) for exemplary lipocalin muteins are summarized in Table 4.

[2] = Thermal stability assessment by nanoDSC; type: physicochemical; conditions: 1 mg/mL in PBS, scan 25-100° C. at 1° C./min; for TM: major transition
Method in brief: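 CTGF-specific lipocalin muteins at 1 mg/mL in PBS scanned from 25 to 100° C at 1° C/min by capillary nano-DSC. Where several transitions occur, the Tm of the major unfolding event is reported, along with onset temperature. Some muteins were expressed in E. coli, others in CHO cells.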

[3] = target: T2, Murine CTGF; assay: SPR binding kinetics and affinity, murine CTGF; set-up: key to Murine CTGF kon / Murine CTGF koff / Murine CTGF KD: B binding without determination of kinetics constants; conditions: 25° C., 1:1 binding model
Procedure: as §1, §2, §3, §4, §5

[4] = target: T3, human CTGF (Homo sapiens, UniProt P29279); assay: SPR binding kinetics and affinity, human CTGF; conditions: 25° C., 1:1 binding model
T3 construct: purchased Creative Biomart
Procedure: as §1, §2, §3, §4

[5] = target: T4, human CTGF (Homo sapiens, UniProt P29279, H83D); assay: SPR binding kinetics and affinity, human CTGF; conditions: 25° C., 1:1 binding model
T4 construct: purchased Creative Biomart
Procedure: as §1, §2, §3, §4

[6] = test system: cynomolgus CTGF; assay: SPR binding kinetics and affinity, cynomolgus CTGF; conditions: 25° C., 1:1 binding model
Procedure: as §1, §2, §3, §4, §5

Sequence of cynomolgus CTGF (as listed by the source): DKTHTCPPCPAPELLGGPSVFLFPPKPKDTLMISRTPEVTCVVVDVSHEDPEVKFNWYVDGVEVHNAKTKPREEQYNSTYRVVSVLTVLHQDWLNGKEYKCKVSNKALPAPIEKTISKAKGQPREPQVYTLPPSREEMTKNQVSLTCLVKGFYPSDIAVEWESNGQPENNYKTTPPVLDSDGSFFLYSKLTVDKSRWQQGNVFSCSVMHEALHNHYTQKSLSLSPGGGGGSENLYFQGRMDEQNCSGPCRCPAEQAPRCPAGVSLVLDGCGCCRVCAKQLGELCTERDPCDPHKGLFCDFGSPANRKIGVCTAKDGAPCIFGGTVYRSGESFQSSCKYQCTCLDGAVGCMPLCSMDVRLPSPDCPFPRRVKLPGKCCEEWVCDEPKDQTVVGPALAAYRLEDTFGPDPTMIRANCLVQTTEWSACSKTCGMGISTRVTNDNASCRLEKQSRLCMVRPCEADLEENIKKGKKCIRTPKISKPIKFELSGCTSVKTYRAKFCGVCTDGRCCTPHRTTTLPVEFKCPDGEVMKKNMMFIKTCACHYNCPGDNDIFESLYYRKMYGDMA
T4 sequence (P29279 with tags, fused parts or gaps H83D): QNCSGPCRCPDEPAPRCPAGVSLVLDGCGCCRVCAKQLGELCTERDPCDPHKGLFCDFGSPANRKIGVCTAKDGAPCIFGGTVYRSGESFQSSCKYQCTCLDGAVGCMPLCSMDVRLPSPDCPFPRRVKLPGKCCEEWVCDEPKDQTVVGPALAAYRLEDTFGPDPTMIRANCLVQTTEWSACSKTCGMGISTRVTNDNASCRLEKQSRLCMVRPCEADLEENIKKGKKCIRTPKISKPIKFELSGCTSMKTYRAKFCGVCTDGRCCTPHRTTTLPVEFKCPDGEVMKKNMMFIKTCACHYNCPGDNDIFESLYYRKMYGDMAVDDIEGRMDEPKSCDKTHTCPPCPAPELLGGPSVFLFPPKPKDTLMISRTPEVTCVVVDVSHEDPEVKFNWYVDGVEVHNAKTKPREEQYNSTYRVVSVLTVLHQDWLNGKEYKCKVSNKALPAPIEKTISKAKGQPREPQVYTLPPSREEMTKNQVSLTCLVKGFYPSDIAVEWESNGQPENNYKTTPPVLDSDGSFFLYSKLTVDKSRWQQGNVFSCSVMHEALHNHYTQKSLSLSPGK
T3 sequence (P29279 with tags, fused parts or gaps H83D): as above

Molecule | Rat CTGF koff [1] | Rat CTGF kon [1] | ONSET MELTING [2] [°C] | TM [2] [°C] | Murine CTGF koff [3] | Murine CTGF kon [3] | human CTGF koff [4] [s⁻¹] | human CTGF kon [5] [M⁻¹ s⁻¹] | cynomolgus CTGF koff [6] [s⁻¹] | cynomolgus CTGF kon [6] [M⁻¹ s⁻¹] | Murine CTGF KD [3] | Rat CTGF KD [1]
SEQ ID NO: 31: optimized CTGF-binding hNGAL lipocalin mutein (protein, lipocalin mutein) QDSTSDLIPAPPLSKVPLQQNFQDNQFQGKWYVVGWAGNVKLREDKQPQKMSATIYELKEDKSYDVTEVVFEQKKCHYIIKTFVPGSQPGEFTAGDIKSPPGYTSSLVRVVSTNYNQHAMVFFKKVSQNREFFWITLYGRTKELTSELKENFIRFSKSLGLPENHIVFPVPIDQCIDG | 0.000423 s⁻¹ | 223000 M⁻¹ s⁻¹ | 59 | 75 | 0.000444 s⁻¹ | 281000 M⁻¹ s⁻¹ | 4.85e-05 | 195000 | 7.31e-05 | 162000 | – | –
SEQ ID NO: 34: optimized CTGF-binding hNGAL lipocalin mutein (protein, lipocalin mutein) QDSTSDLIPAPPLSKVPLQQNFQDNQFQGKWYVVGWAGNVILREDKQPFKMSATIYELKEDKSYDVTEVVFEQKKCHYIIKTFVPGSQPGEFTLGDIKSPPGETSTLVRVVSTNYNQHAMVFFKKVSQNREFFWITLYGRTKELTSELKENFIRFSKSLGLPENHIVFPVPIDQCIDG | – | – | 67 | 82 | 0.00286 s⁻¹ | 240000 M⁻¹ s⁻¹ | 0.000169 | 150000 | 0.000238 | 139000 | – | –
SEQ ID NO: 35: optimized CTGF-binding hNGAL lipocalin mutein (protein, lipocalin mutein) QDSTSDLIPAPPLSKVPLQQNFQDNQFQGKWYVVGWAGNVKLREDKQPLKMSATIYELKEDKSYDVTEVVFEQKKCHYIIKTFVPGSQPGEFTAGDIKSPPGYTSSLVRVVSTNYNQHAMVFFKKVSQNREFFWITLYGRTKELTSELKENFIRFSKSLGLPENHIVFPVPIDQCIDG | 0.000273 s⁻¹ | 193000 M⁻¹ s⁻¹ | 63 | 78 | 0.000287 s⁻¹ | 128000 M⁻¹ s⁻¹ | 5.94e-05 | 108000 | – | – | – | –
SEQ ID NO: 36: optimized CTGF-binding hNGAL lipocalin mutein (protein, lipocalin mutein) QDSTSDLIPAPPLSKVPLQQNFQDNQFQGKWYVVGWAGNVKLREDKQPAKMSATIYELKEDKSYDVTEVVFEQKKCHYIIKTFVPGSQPGEFTAGDIKSPPGYTSSLVRVVSTNYNQHAMVFFKKVGQNREFFWITLYGRTKELTSELKENFIRFSKSLGLPENHIVFPVPIDQCIDG | – | – | 58 | 73 | 0.00052 s⁻¹ | 310000 M⁻¹ s⁻¹ | 6.95e-05 | 165000 | 9.77e-05 | 141000 | – | –
SEQ ID NO: 33: optimized CTGF-binding hNGAL lipocalin mutein (protein, lipocalin mutein) QDSTSDLIPAPPLSKVPLQQNFQDNQFQGKWYVVGWAGNAKLREDKQPFKMSATIYELKEDKSYDVTEVVFEQKKCHYIIKTFVPGSQPGEFTEGNYKRRPRLWSDLVRVVSTNYNQHAMVFFKKVHQNREFFWITLYGRTKELTSELKENFIRFSKSLGLPENHIVFPVPIDQCIDG | 6.3e-05 s⁻¹ | 279000 M⁻¹ s⁻¹ | 56 | 72 | 5.29e-05 s⁻¹ | 176000 M⁻¹ s⁻¹ | 1.71e-05 | 172000 | – | – | – | –
SEQ ID NO: 22: optimized CTGF-binding hNGAL lipocalin mutein (protein, lipocalin mutein) QDSTSDLIPAPPLSKVPLQQNFQDNQFQGKWYVVGIAGNAILRVDKQPAKMFATIYELKEDKSYDVTSVRFEAKSCVYTIKTFVPGSQPGEFTAGNIKSAPGQTSTLVRVVSTNYNQHAMVFFKHVSQNREIFVITLYGRTKELTSELKENFIRFSKSLGLPENHIVFPVPIDQCIDG | 4.01e-05 s⁻¹ | 181000 M⁻¹ s⁻¹ | 59 | 73 | B | B | 8.05e-06 | 142000 | – | – | B | –
SEQ ID NO: 5: optimized CTGF-binding hNGAL lipocalin mutein (protein, lipocalin mutein) QDSTSDLIPAPPLSKVPLQQNFQDNQFQGKWYVVGKAGNALREDKEPPKMWATIYELKEDKSYDVTHVHFLTKKCKYLIDTFVPGSQPGEFTIGAIKSGPGLTSPLVRVVSTNYNQHAMVFFKWVSQNREWFTITLYGRTKELTSELKENFIRFSKSLGLPENHIVFPVPIDQCIDG | 0.000362 s⁻¹ | 294000 M⁻¹ s⁻¹ | 52 | 66 | B | B | 6.65e-05 | 211000 | – | – | B | –
SEQ ID NO: 6: optimized CTGF-binding hNGAL lipocalin mutein (protein, lipocalin mutein) QDSTSDLIPAPPLSKVPLQQNFQDNQFQGKWYVVGRAGNNQLREDKSPPKMWATIYELKEDKSYDVTHVHFSTKKCRYIIDTFVPGSQPGEFTAGAIKSGPGLTSPLVRVVSTNYNQHAMVFFKWVTQNREWFTITLYGRTKELTSELKENFIRFSKSLGLPENHIVFPVPIDQCIDG | B | B | 48 | 66 | B | B | 0.000149 | 290000 | – | – | B | B

From US20240228562A1, “NOVEL LIPOCALIN MUTEINS SPECIFIC FOR CONNECTIVE TISSUE GROWTH FACTOR (CTGF)” (PIERIS PHARMACEUTICALS GMBH, priority 2021, published 2024)
